Legend:
[1] = target: JF646-labeled Mcm2-7 (MCM) hexamer on DNA after incubation with ORC, Cdc6 and ATP (S. cerevisiae) (UniProt P29469); test: single-molecule fluorescence colocalisation on optically trapped DNA (confocal microscopy, bleaching-step counting); bulk incubation of 5 nM ORC, 10 nM Cdc6, 100 nM MCM-Cdt1 with 1 nM 21.2 kbp DNA in 5 mM ATP for 30 min at 30°C, diluted 1000x, injected into the flow cell and imaged, no high-salt wash; all proteins on DNA
[2] = target: JF646-labeled Mcm2-7 (MCM) hexamer on DNA after incubation with ORC, Cdc6 and ATP (S. cerevisiae) (UniProt P29469); test: single-molecule fluorescence colocalisation on optically trapped DNA (confocal microscopy, bleaching-step counting); bulk incubation of 5 nM ORC, 10 nM Cdc6, 100 nM MCM-Cdt1 with 1 nM 21.2 kbp DNA in 5 mM ATP for 30 min at 30°C, then high-salt wash (500 mM NaCl) in the flow cell before imaging; MCM hexamer with MCM hexamer (double hexamer) on DNA

- percent of MCM-only foci with two or more MCMs [1]: 52%
- percent of foci with 2 MCM after high-salt wash [2]: 24%
- stoichiometry N [2]: 2
Substance: JF646-labeled Mcm2-7 (MCM) hexamer on DNA after incubation with ORC, Cdc6 and ATP, P29469 1-868; P24279 1-971; P30665 1-933; P29496 1-775; P53091 1-1017; P38132 1-845

— publication PMC7998030
